Measurements reported in the supplement of paper PMC9170038.

system: K4 kissing-loop RNA reporter; assay: apparent KD of K4 kissing-loop reporter; higher = weaker reporter binding; details: Eterna round: R107; input ligand: theophylline 20 uM
Description: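 RNA-MaP round R107: designed RNA switches with theophylline, tryptophan, arginine or FMN aptamers are transcribed on-chip within common flanks. They are titrated with a labelled K4 kissing-loop RNA reporter in RNA-MaP buffer (100 mM Tris pH 7.5, 80 mM KCl, 4 mM MgCl2), without ligand or with the indicated ligand. Median apparent KD per design.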
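Further: bound reporter read as fluorescence of individual clusters on recovered sequencing chips by microscopy, with normalized cluster intensities fitted with a binding model.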

Sequence	apparent KD of K4 kissing-loop reporter [nM]
AGGAGCGUGGGAUGCAAAUCGCACGCUCCUCGAGGACCGGUACGGCCGCCACUCGCUCGCGCCGAGUGAUGUUCGGCCGGCGAAC [#2 Same State - Tryptophan A Attempt #14 (HarryS)]	266
AUAUUGGUUGAGAGUGAUGUUCCUUGUGUUCGAGGACCGGUACGGCCGCCACUCGGGUAGAAAAUAAAAGAUGUGUUUGAUUUUU [BDazzled - #13 SS Tryptophan A]	185
GUAUCGCUAGGAGGAUAUUCCAUUUUACAUAUAAAUGGAUAUGCGGAGUGAUGUUCCGAUUUACGGGAAGAAGGCCUAGUGAUAC [FMN B 20]	256
UAUUGGAGUGAUGUUCCAUUAACGAUCCUACGAGGACCGGUACGGCCGCCACUCGAAAUGCAGUGAUGUUGCAGCCAGCCGUAAA [Exclusion Trptophan A GF 7]	188
AAAUGUAUCUGAAGGAGCGUGAAAUAAUAUUAGACAUAAUAGCCCAGUGAUGUUGGGUUAUCACAGGUAGGUCGCAGAUGUAUAA [Same State Arginie B GF 26]	125
AAUAAAAUCACGGCCGCCACUGAAUAAUUGGUAAGUAGUGAUGUUACUUUACAUAUCUUAUUUAACAGGACCGGGUGAAUAUUUA [JR_ExcTryptoB_Sub008]	103
UAUGUACACGGGUAGUGGUACAUCGAGGAAGGAGCGUGCGCAGGCACAGGUAGGUCGCCUCAGCGCACGAGUGAUGUUCGUGGGC [Inares]	298
CGGAGUGAUGUUCCGUUAAUUCCUUAUUUACGAGGACCGGUACGGCCGCCACUCGAUUUUGCUUUUAUUUAAUGUUUGGAAAUUU [JR_SSTryptoA_Sub007]	317
AAAGGUUGAAGUGAUACCAGACUAGCAGUGAUGUUGCGCCAAAGUGAGUGAUGUUCACCAGUCCCUUGGCAGCACAUGCCUAAAG [Same State Theophylline B GF 13]	1310
UGUACCGAGUAAGGAUAUGUCGUCGAAAGACGAAAUGGAGUGAUGUUCCUUAAACUGCGAAAGCAGACAGAAGGUACUUGGUACU [FmnBS 29 A11+U75]	224
UUUUAUUAAUACUUCUAGUGAUGUUAGAUACGAGGACCGGUACGGCCGCCACUCGCUUAUUGGUUUAUAUAUUUUUUAUUCUUUA [JR_SSTryptoA_Sub013]	353

same assay, conditions: Eterna round: R107; input ligand: tryptophan 2.4 mM

Sequence	apparent KD of K4 kissing-loop reporter [nM]
AGAUAGGGCUGAAGGAGCGUCGGAGAAGAAAAGAAGAAAUCCAGUGAUGUUGGAUAAAUCCGACAGGUAGGUCGCAGUUUUAUGA [hbob_SS_Arginine_B_2t136]	119
AAGUGAUGUUGUAGUGAUGUUGUGAUGUUGCAGGAUAUAUAGUGAUGUAGAAGGGUAAGUACUGAUUUUUUUUUUGAGUGAUGUU [ccbyzrmullin]	73.8
UGAUUUAACUGAAGGAGCGGCAAUUGAUAAGUAAAUAUAGUGAUGUUAUAUAAGAUAGAGAGCCAGGUAGGUCGCAGAGGUAUUA [ExArgB.M]	142
AACGCCACCGCGGAUACCAGAGCCAGUGAUGUUGGAUCUGGAAAUUCGUGGGUAAGCUGGCUCCCUUGGCAGCUGCGGUUCUUUU [Tiisaron]	109
AUUAAUAACUGAGGAUAUCGAAAUUAUGUAGUGAUGUUACUGUAAAUUCAAAUUUUCAUUUCUUAACGAGAAGGCAGAAUAAUUA [JR_ExcFMNB_Sub012]	86.8
GUCAACCCAGCUGAUACCAGCCGGUUACGCACAUGCACACCCAGUGAUGUUGGGUAUUAGGGCCCUUGGCAGCAGCCUCUUGGCU [theeternabot_sameState_KL_Theo_B_30]	149
AUGAGGAACAGUGAUCCUACUCCAUGGGAAGGAGCGUAGGAUACUACAGGUAGGUCGCCCAGUGAUGUUGGGCGCGUGUUCUUGG [Ermaar]	113
UGAUACCAGACGGCCGCCACUAGGACCGGGAGUGAUGUUCCCAAAUUAAAAUACUCGGCCGCCACUAGGACCGGGUCUGGUAUCU [TrypBX 26 #DoubleAptamer #SwitchBubble]	113
AAUAAGCGUGGAAGGAGCGUCGUCCAGUGAUGUUGGAGUUAGAUACCAGUGAUGUUGGUUAGGCAGGUAGGUCGCCGCAAAGCUU [Exclusion Arginine B Gf 7]	81
CCUUCCACAGAAGGAUAUCGGAGUGAUGUUCCCAAGCAGACCUCAAAGUGGGUAGCCAGUCAGUUCCGAGAAGGUCUGCAGCGAG [theeternabot_exclusion_KL_FMN_B_26]	189
AUAGGAGUGAUGUUCCUUAGUUUCUCCGAUACCAGUAUGGAAACAUACCCUUGGCAGCGGUAAACCGCAGAUUAGGAAACUAGUC [Theophylline A K4 2]	297
GCUUUCCGUGCGGCCGCCACUGAUCUAAGUGAUGUUUAGAUCGCAUUCGAACCGGUUACCCAGAGCAGGACCGGGCACCAGCGCU [theeternabot_exclusion_KL_Trp_B_35]	91.9
UGACUGGACUGAAGGAGCGCCACGGUCAUAGACCGAAUAAGGAGUGAUGUUCCACAUAAAAGGCAGGUAGGUCGCAGUCUAGUCU [ArgBS 2 #SwitchBubble #StaticStem]	101
UGGAGUUGACGAAAAGUCAACUCCUGAGAUACCAGUGACGAAAGUCACCCUUGGCAGCUCACUGCCAGUGAUGUUGGUAUAUAAA [#OpenEnded 4]	124
GCUAUGGUAGGAAGGAGCGCGGACGAUAUUUAUCGAGUGAUGUUCGAUUCAUUAAUUUGAACGCAGGUAGGUCGCCUACUAUAGC [Arginine B K4 29]	161
AAGGGCCGGGCGGCCGCCACUGGUCGUGUACACGUACUAACCAGUGAUGUUGGUAUAGUACGCGACAGGACCGGGCCCGGCCCAA [Exclusion - Tryptophan B (Freestyle 30)]	236
AUUUUUUUGUCAGGAUAUUAGUGUUGGUUUGGUUUGUUAGUGAUGUUGAUAUUUGUUUUAUGUAUUUAAGAAGGGAUUUAGAUGU [zaahullin]	293
CGGAUGUAGUGAUGUUAUAUUAGAUGUAGACGAGGACCGGUACGGCCGCCACUCGUGAUGGCUGCUAGCACGUUUCGAGGUUUGC [ExTryptoA.Cp]	489
UGAUACCAGACGGCCGCCACUGGGACCGGGAGUGAUGUUCCGAAAAUUAAAUGCUCGGCCGCCACUAGGACCGGGUCUGGUAUCU [TrypBX 29 #DoubleAptamer #SwitchBubble]	453
UGUGUUGUAUGACGGUUUGUCACUUAGUAUUAGGAUAUAUAAACAAAUAGAAGGGAUGGCGGAGUGAUGUUCCGCCGGCCGCCAU [FMN A Exl V10]	97.6
AGGGUAAGGCGUUAACAUGACACCUGGGAAGGAGCGCGGUACACCGCAGGUAGGUCGCCCAGUGAUGUUGGGUGAUUGUAUGAGU [KL-XArg-A24]	131

Sequence	apparent KD of K4 kissing-loop reporter [nM]
GAUUGUGAUGGAAACAUCGCAAUCUCUGAAGGAGCGCGUGAAAACGCAGGUAGGUCGCAGGACGACAAAGACAGUGAUGUUGUCG [Ex Arginine A K4 2]	416
UCGGACCCUGGAGGAUAUGAGUCGAGUGAUGUUCGGCGGUCCAUGCUGGUGCGGCGUUAUGCCCUUUUAGAAGGCCAGGGUCCGA [#2 Exclusion - FMN B Attempt #12 (HarryS)]	162
CCAUCGCUAUUCGAUACCAGUCAGGAGGUCUAUGACCUCCUAAUGGAGUGAUGUUCCUUAGACCCUUGGCAGCGAAUAGUGAUGG [#01 K4 Theophylline B Same State]	534
CUCUGCUUCCCAGGGCUAGUGAUGUUAGCCCGAGGACCGGUACGGCCGCCACUCGAGUUAAGCAUCGACCGUGAAUGUUCGAAGC [theeternabot_exclusion_KL_Trp_A_48]	140
UGAUAGGACAGAAGGAGCGGAAUGCUGUCCAAAAGGACAGCAAAUAUAAAAGGAGUGAUGUUCCAGGUAGGUCGCUGUCCUAUCU [ArgBX 20 #SwitchBubble #StaticStem]	203
GGUAUCUAUACAGAUACCAGUCGUAUAGGUCGAUUACAGGUUAGUGAUGUUAACCUGUACGACCCUUGGCAGCUGUAUAAUAAUA [Theo B Ex t2]	61.9
AGGGUAAGGCGUUAACAUGACACCUGGGAAGGAGCGCGGUACACCGCAGGUAGGUCGCCCAGUGAUGUUGGGUGUAUGUAUGAGU [KL-XArg-A21]	132
GUAUGUGGAAACACGUACUUAUAUCCUAGGCAGGAUAUGCGGAAACGCAGAAGGGCCACCGGCGAGAAAAUCCAGUGAUGUUGGA [Ex FMN A 7]	249
CGGUUUGGUUGAGAGGUUGGGCCGAAUGAUACCAGUAUAUAAGAAUACCCUUGGCAGCAUAAGAAAGAUAUAGUGAUGUUGUAUA [SSTheophA.J]	507
CGCAGUGAUGUUGCGAAUAUAAUGCAUUCAGAGGAUAUUCGUUUGGGAAGAAGGCUGAAUCGUUCUUCGAGUGAUGUUCGAGGAA [Same State FMN A GF 17]	132
AGGAGCGUGGGAUGCAAAUCGCACGCUCCUCGAGGACCGGUACGGCCGCCACUCGCUCGCGCCGAGUGAUGUUCGGCCGGCGAAC [#2 Same State - Tryptophan A Attempt #14 (HarryS)]	407
AUAUUGGUUGAGAGUGAUGUUCCUUGUGUUCGAGGACCGGUACGGCCGCCACUCGGGUAGAAAAUAAAAGAUGUGUUUGAUUUUU [BDazzled - #13 SS Tryptophan A]	212
GUAUCGCUAGGAGGAUAUUCCAUUUUACAUAUAAAUGGAUAUGCGGAGUGAUGUUCCGAUUUACGGGAAGAAGGCCUAGUGAUAC [FMN B 20]	208
UAUUGGAGUGAUGUUCCAUUAACGAUCCUACGAGGACCGGUACGGCCGCCACUCGAAAUGCAGUGAUGUUGCAGCCAGCCGUAAA [Exclusion Trptophan A GF 7]	162
AAAUGUAUCUGAAGGAGCGUGAAAUAAUAUUAGACAUAAUAGCCCAGUGAUGUUGGGUUAUCACAGGUAGGUCGCAGAUGUAUAA [Same State Arginie B GF 26]	106
AAUAAAAUCACGGCCGCCACUGAAUAAUUGGUAAGUAGUGAUGUUACUUUACAUAUCUUAUUUAACAGGACCGGGUGAAUAUUUA [JR_ExcTryptoB_Sub008]	131
UAUGUACACGGGUAGUGGUACAUCGAGGAAGGAGCGUGCGCAGGCACAGGUAGGUCGCCUCAGCGCACGAGUGAUGUUCGUGGGC [Inares]	265
CGGAGUGAUGUUCCGUUAAUUCCUUAUUUACGAGGACCGGUACGGCCGCCACUCGAUUUUGCUUUUAUUUAAUGUUUGGAAAUUU [JR_SSTryptoA_Sub007]	122
AAAGGUUGAAGUGAUACCAGACUAGCAGUGAUGUUGCGCCAAAGUGAGUGAUGUUCACCAGUCCCUUGGCAGCACAUGCCUAAAG [Same State Theophylline B GF 13]	811
UGUACCGAGUAAGGAUAUGUCGUCGAAAGACGAAAUGGAGUGAUGUUCCUUAAACUGCGAAAGCAGACAGAAGGUACUUGGUACU [FmnBS 29 A11+U75]	203
UUUUAUUAAUACUUCUAGUGAUGUUAGAUACGAGGACCGGUACGGCCGCCACUCGCUUAUUGGUUUAUAUAUUUUUUAUUCUUUA [JR_SSTryptoA_Sub013]	263
